Test results taken from patent US20160272694A1.
Each block holds one substance with its values, some of them ahead of it.

Columns and labels:
[1] = target: hEDAR-mFc (human) (UniProt Q9UNE0); experiment: sandwich ELISA: hEDAR-mFc coated, anti-human IgG (Fc) CH2-HRP detection; EDA-A1 3.13 ng/mL, batch 7
[2] = target: hEDAR-mFc (human) (UniProt Q9UNE0); experiment: sandwich ELISA: hEDAR-mFc coated, anti-human IgG (Fc) CH2-HRP detection; EDA-A1 with hFc, nominal 50 ng/mL, batch 7
[3] = target: hEDAR-mFc (human) (UniProt Q9UNE0); experiment: sandwich ELISA: hEDAR-mFc coated, anti-human IgG (Fc) CH2-HRP detection; EDA-A1 with hFc, nominal 12.5 ng/mL, batch 7
[4] = target: hEDAR-mFc (human) (UniProt Q9UNE0); experiment: sandwich ELISA: hEDAR-mFc coated, anti-human IgG (Fc) CH2-HRP detection; EDA-A1 100 ng/mL, batch 5
[5] = target: hEDAR-mFc (human) (UniProt Q9UNE0); experiment: sandwich ELISA: hEDAR-mFc coated, anti-human IgG (Fc) CH2-HRP detection; EDA-A1 with hFc, nominal 3.13 ng/mL, batch 7
[6] = target: hEDAR-mFc (human) (UniProt Q9UNE0); experiment: sandwich ELISA: hEDAR-mFc coated, anti-human IgG (Fc) CH2-HRP detection; EDA-A1 6.25 ng/mL, batch 7
[7] = target: hEDAR-mFc (human) (UniProt Q9UNE0); experiment: sandwich ELISA: hEDAR-mFc coated, anti-human IgG (Fc) CH2-HRP detection; EDA-A1 50 ng/mL, batch 7
[8] = target: hEDAR-mFc (human) (UniProt Q9UNE0); experiment: sandwich ELISA: hEDAR-mFc coated, anti-human IgG (Fc) CH2-HRP detection; EDA-A1 with hFc, nominal 6.25 ng/mL, batch 7
[9] = target: hEDAR-mFc (human) (UniProt Q9UNE0); experiment: sandwich ELISA: hEDAR-mFc coated, anti-human IgG (Fc) CH2-HRP detection; EDA-A1 100 ng/mL, batch 7
[10] = target: hEDAR-mFc (human) (UniProt Q9UNE0); experiment: sandwich ELISA: hEDAR-mFc coated, anti-human IgG (Fc) CH2-HRP detection; EDA-A1 with hFc, nominal 100 ng/mL, batch 7
[11] = target: hEDAR-mFc (human) (UniProt Q9UNE0); experiment: sandwich ELISA: hEDAR-mFc coated, anti-human IgG (Fc) CH2-HRP detection; EDA-A1 12.5 ng/mL, batch 7
[12] = target: hEDAR-mFc (human) (UniProt Q9UNE0); experiment: sandwich ELISA: hEDAR-mFc coated, anti-human IgG (Fc) CH2-HRP detection; EDA-A1 100 ng/mL with hFc 100 ng/mL, batch 5
[13] = target: hEDAR-mFc (human) (UniProt Q9UNE0); experiment: sandwich ELISA: hEDAR-mFc coated, anti-human IgG (Fc) CH2-HRP detection; EDA-A1 with hFc, nominal 25 ng/mL, batch 7
[14] = target: hEDAR-mFc (human) (UniProt Q9UNE0); experiment: sandwich ELISA: hEDAR-mFc coated, anti-human IgG (Fc) CH2-HRP detection; EDA-A1 25 ng/mL, batch 7
[15] = target: EDI200 (human); experiment: bridging ECL in NHP serum; antibody 7.81 ng/mL, signal with 1 µg/mL free EDI200 over signal without
Chain of EDI200 (human) (chain, as listed by the source): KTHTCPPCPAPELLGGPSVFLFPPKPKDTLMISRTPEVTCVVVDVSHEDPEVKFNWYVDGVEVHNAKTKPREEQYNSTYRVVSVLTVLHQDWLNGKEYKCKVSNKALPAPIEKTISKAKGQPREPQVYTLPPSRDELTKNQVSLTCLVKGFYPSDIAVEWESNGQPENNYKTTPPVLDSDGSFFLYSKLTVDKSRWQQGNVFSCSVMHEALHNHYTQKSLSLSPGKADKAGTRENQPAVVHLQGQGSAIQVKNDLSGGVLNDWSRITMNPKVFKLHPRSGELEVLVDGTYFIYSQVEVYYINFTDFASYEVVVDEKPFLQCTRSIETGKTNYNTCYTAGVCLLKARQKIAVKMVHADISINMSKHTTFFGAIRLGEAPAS

[16] = target: EDI200 (human); experiment: bridging ECL (biotin-EDI200/SulfoTag-EDI200) in NHP serum; antibody 7.81 ng/mL
[17] = target: EDI200 (human); experiment: bridging ECL in NHP serum; antibody 7.81 ng/mL with 1 µg/mL free EDI200
[18] = target: EDI200 (human); experiment: bridging ECL in NHP serum; antibody 62.5 ng/mL with 1 µg/mL free EDI200
[19] = target: EDI200 (human); experiment: bridging ECL in NHP serum; antibody 15.63 ng/mL, signal with 1 µg/mL free EDI200 over signal without
[20] = target: EDI200 (human); experiment: bridging ECL (biotin-EDI200/SulfoTag-EDI200) in NHP serum; antibody 15.63 ng/mL
[21] = target: EDI200 (human); experiment: bridging ECL in NHP serum; antibody 500 ng/mL with 1 µg/mL free EDI200
[22] = target: EDI200 (human); experiment: bridging ECL in NHP serum; antibody 250 ng/mL, signal with 1 µg/mL free EDI200 over signal without
[23] = target: EDI200 (human); experiment: bridging ECL (biotin-EDI200/SulfoTag-EDI200) in NHP serum; antibody 250 ng/mL
[24] = target: EDI200 (human); experiment: bridging ECL in NHP serum; antibody 125 ng/mL, signal with 1 µg/mL free EDI200 over signal without
[25] = target: EDI200 (human); experiment: bridging ECL (biotin-EDI200/SulfoTag-EDI200) in NHP serum; antibody 62.5 ng/mL
[26] = target: EDI200 (human); experiment: bridging ECL (biotin-EDI200/SulfoTag-EDI200) in NHP serum; antibody 125 ng/mL
[27] = target: EDI200 (human); experiment: bridging ECL in NHP serum; antibody 31.25 ng/mL with 1 µg/mL free EDI200
[28] = target: EDI200 (human); experiment: bridging ECL in NHP serum; antibody 500 ng/mL, signal with 1 µg/mL free EDI200 over signal without
[29] = target: EDI200 (human); experiment: bridging ECL in NHP serum; antibody 125 ng/mL with 1 µg/mL free EDI200
[30] = target: EDI200 (human); experiment: bridging ECL (biotin-EDI200/SulfoTag-EDI200) in NHP serum; antibody 500 ng/mL; plate NCO 129.4
[31] = target: EDI200 (human); experiment: bridging ECL in NHP serum; antibody 250 ng/mL with 1 µg/mL free EDI200
[32] = target: EDI200 (human); experiment: bridging ECL in NHP serum; antibody 15.63 ng/mL with 1 µg/mL free EDI200
[33] = target: EDI200 (human); experiment: bridging ECL in NHP serum; antibody 62.5 ng/mL, signal with 1 µg/mL free EDI200 over signal without
[34] = target: EDI200 (human); experiment: bridging ECL in NHP serum; antibody 31.25 ng/mL, signal with 1 µg/mL free EDI200 over signal without
[35] = target: EDI200 (human); experiment: bridging ECL (biotin-EDI200/SulfoTag-EDI200) in NHP serum; antibody 31.25 ng/mL

Chain of hEDAR-mFc (human) (Q9UNE0 27-183 limits assumed): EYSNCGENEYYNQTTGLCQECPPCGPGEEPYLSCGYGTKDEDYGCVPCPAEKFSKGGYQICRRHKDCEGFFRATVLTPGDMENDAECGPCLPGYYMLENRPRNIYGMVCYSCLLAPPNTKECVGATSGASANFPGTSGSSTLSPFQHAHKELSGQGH

Mean OD [1]: 0.116 OD | Mean OD [2]: 0.214 OD | Mean OD [3]: 0.15 OD | Mean Conc. (read as EDI200 from the standard curve) [4]: 5.43 ng/mL | Mean OD [4]: 0.292 OD | Mean OD [5]: 0.121 OD | Mean OD [6]: 0.119 OD | Mean OD [7]: 0.234 OD | Mean OD [8]: 0.125 OD | Mean Conc. (read as EDI200 from the standard curve) [9]: 6.14 ng/mL | Mean OD [9]: 0.316 OD | Mean Conc. (read as EDI200 from the standard curve) [10]: 4.77 ng/mL | Mean OD [10]: 0.275 OD | Mean OD [11]: 0.14 OD | Mean Conc. (read as EDI200 from the standard curve) [12]: 5.34 ng/mL | Mean OD [12]: 0.289 OD | Mean OD [13]: 0.18 OD | Mean OD [14]: 0.18 OD
Substance: Recombinant human Ectodysplasin A1 (from UniProt Q92838 160-391) (ligand)

Drug/Non-drug Ratio [15]: 0.93 | Mean Signal [16]: 85 signal (ECL) | Mean Signal [17]: 80 signal (ECL) | Mean Signal [18]: 76 signal (ECL) | Drug/Non-drug Ratio [19]: 0.91 | Mean Signal [20]: 81 signal (ECL) | Mean Signal [21]: 81 signal (ECL) | Drug/Non-drug Ratio [22]: 0.96 | Mean Signal [23]: 83 signal (ECL) | Drug/Non-drug Ratio [24]: 0.93 | Mean Signal [25]: 81 signal (ECL) | Mean Signal [26]: 82 signal (ECL) | Mean Signal [27]: 76 signal (ECL) | Drug/Non-drug Ratio [28]: 0.95 | Mean Signal [29]: 76 signal (ECL) | Mean Signal [30]: 86 signal (ECL) | Mean Signal [31]: 80 signal (ECL) | Mean Signal [32]: 74 signal (ECL) | Drug/Non-drug Ratio [33]: 0.94 | Drug/Non-drug Ratio [34]: 0.93 | Mean Signal [35]: 81 signal (ECL)
Substance: mouse anti-human CD106 IgG1 antibody
